Columns and labels:
[1] = molecular target: N-CBZ-Gly-Pro-Leu-Ala-Pro
[2] = molecular target: control peptide Ala-Leu-Lys-Asp-Ala-Gln-Thr-Asn-Ser-Ser-Ser-Phe
[3] = molecular target: Lys-Lys peptide Pro-Leu-Ser-Arg-Leu-Ser-Val-Ala-Lys-Lys
[4] = molecular target: MBP/IgG fusion protein encoded by pMA2-TH-IgG-9 (E. coli; human)

Substance “carboxypeptidase Y (from UniProt P00729) (enzyme)” has a kinetic constant of hydrolysis of the remaining Pro-Leu bond, ninhydrin assays of released amino acids [1] of 18.4 min⁻¹, a removal of the carboxy-terminal phenylalanine, HPLC of the digestion products [2] of 96% and a rate of digestion at the flow rate of 4 ml/minute (N-CBZ-Phe-Ala) of 42 µmol/min. For the same substance, the K^1 min^-1 (first order rate constant, flow digestion at 2 ml/min) (N-CBZ-Gly-Pro) was 0.16 min⁻¹, the K^1 min^-1 (first order rate constant, flow digestion at 2 ml/min) (N-CBZ-Ala-Leu) was 27.5 min⁻¹ and the K^1 min^-1 (first order rate constant, flow digestion at 2 ml/min) (N-CBZ-Glu-Tyr) was 24.2 min⁻¹. The K^1 min^-1 (first order rate constant, flow digestion at 2 ml/min) (N-CBZ-Pro-Phe) was 1.48 min⁻¹, the K^1 min^-1 (first order rate constant, flow digestion at 2 ml/min) (N-CBZ-Ala-Pro) was 22.4 min⁻¹ and the first order rate constant of hydrolysis of the Lys-Lys bond, ninhydrin assay of free lysine [3] was 0.16 min⁻¹.

thrombin (Sigma) (enzyme) gave a cleavage of the fusion protein, time course on SDS-PAGE (% cleaved after 5 minutes) [4] of 75.

Source: patent US5935824
